The series is described as follows: yeast display, Sf9 membrane polyspecificity reagent, FACS + sequencing; frameworks hold sequencing errors. The gist of the method: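 Galactose induction of a Saccharomyces cerevisiae BJ5465 synthetic nanobody display library ran 36–48 hours. The cells were then stained for 1 hour at 4 °C with 10% biotinylated, detergent-solubilized Sf9 membrane reagent, pulled down on streptavidin microbeads and FACS-sorted into low and high (top ~1%) gates on expression and reagent-binding fluorescence. Labels for polyreactivity follow the gate of origin.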
In the case of “QVQLVESGGGLVHAGGSLRLSCAASGSTFSYNAMGWYRQAHGKERELVAAITSSGSSTYYADSVKGRFTISRYNAKNTVYLQMNSLKPEDTAVYYCKAEVLFVAGQVQRNSGDYWGQGTQVSVSS”, the “polyreactivity (PSR sort gate)” value is “low polyreactivity”. For “QVQLVESGGGLVHAGGSLRLSCAASGSTFTPNAMGWYRQAPRKERDLVAAIRGLNGRTYYADSVKGRITISRDNAKNTVYLQMNSLKPEDTAVYYCAAGGYSNYFAWHDYWGQCTQVTVSS” the value was “low polyreactivity”; for “QVQLVESGGGLVHAGGSLRLSCAASGSTFYENAMGWYRQAPGKERELVAAITWSGGRTYYADSVKGRFTISRDNAKNTVYLQMNSLKPEDTAVYYCAAGLFVGFDYWGQGTQVTVSS”, “high polyreactivity”; for “QVQLVESGGGLVHAGGSLRLSCAASGSTFYSNTMGWYRQAPGKERELVAAIDTSGDSTNYADSVKGRFTISRDNAKNTVYLQMNSLKPEDTAVYYCNRRVSDRAFPFNYWGQGTQVTVSS”, “low polyreactivity”.

As for “QVQLVESGGGLVHAGGSLRLSCAASGSTLKYYAMGWYRQAPGKERELVAAITSGSSTYYADSVKGRFTISRDNAKNTVYLQMNSLKPEDTAVYYCAADYYTGYGRYYSTRFYYWGQGTQVTVSS”, the “polyreactivity (PSR sort gate)” value is “high polyreactivity”. Then “QVQLVESGGGLVHAGGSLRLSCAASGSTYIFYAMGWYRQAPGKERELVPAITGGGSTYYADSVKGRFTISRDNAKNTVYLQMNSLKPEDTAVFYCARAEPYYSKSFSLGGYGYWGQGTKVTVSS”, with “low polyreactivity”; and “QVQLVESGGGLVHAGGSLRLSCAAYGFIFRYYAMGRYRQAPGKEMELVATISSGGRTYYADSVKGRFTISRDNAKNTVYLQMNSLKPEDTAVYYCAKDYSWASYNHDYWGQGTQVTVSS”, with “low polyreactivity”; and “QVQLVESGGGLVHAGGSLRLSCAAYGSTFVRNAMGCYRQAPGKERELVAAITSRGGSTYYADSVKGRFTISRDNAKNTVYLQMNSLKPEDTAVYYCAARFGVKRGQYDYWGQGTQVTVSS”, with “high polyreactivity”.

As for “QVQLVESGGGLVHAGGSLRLSCASSGRIFQYNTMGWYRQAPGKERELVAGISSGGSTNYADSVKGRFTISRDNAKNTVYLQMNSLKPEDTAVYYCAARAKRYNVRFDYWGQGTQVTVSS”, the “polyreactivity (PSR sort gate)” value is “high polyreactivity”. For “QVQLVESGGGLVHAGGSLRLSCASSGSTFRPYAMGCYRQAPGKERELVAAIRKIGGRTYYADSVKGRFTISRDNANNTVYLQMNSLKPEDTAVYNCNKRIGGGVHAYNYWGQGTQVSVSS” the value was “low polyreactivity”; for “QVQLVESGGGLVHAGGSLRLSCATSGRTFKYNAMGWYRQAPGKEREFVAAISSRGGSTTYYADSVTGRFTISRDNAKNTVYLQMKSLKPEDTAVYYCADRTPPPASRSRVYYWGQCTQVTVSS”, “high polyreactivity”; for “QVQLVESGGGLVHAGGSLRLSCDASGLKFRAYDMGRYRQAPGKERELVAAITSSSGSTYYADSVKGRFTISRDNAKNTVYLQMNSLKPEDTSVYYCNAYSTFGWYDYWGQGTQVTVSS”, “low polyreactivity”. For “QVQLVESGGGLVHAGGSLRLSCSASGIIFYRYAMGWYRQAPGKERELVAAITWSGVSTSYADSVKGRFTISRDNAKNTVYLKMNSLKPEDTAVYYCNIDPGTLFGDMDSWGQGNQVTVSS”, the “polyreactivity (PSR sort gate)” value is “low polyreactivity”. In the case of “QVQLVESGGGLVHAGGSLRLSCSASGRTFRHYAMGWYRQAPGKEREMVAVISWRGTGTYYADSVKGRFTISRDNAKNTVYLQMNSLKPEDTAVYYCATVWGLGYRMNYWGQGTQVTVSS”, the “polyreactivity (PSR sort gate)” value is given as “high polyreactivity”. For “QVQLVESGGGLVHAGGSLRLSCSASGSILKSYAMGWYRQAPGKERDLVAAITYRDGSTYYADSVKGRFTISRDTAKNTVYLQMISLKPEDTAVYYCASEPYWWNVFYPGYNYWGQGNQVTVSS”, the “polyreactivity (PSR sort gate)” value is reported as “high polyreactivity”. “QVQLVESGGGLVHAGGSLSLICAASGITFDVNAMGWYRQAPGKERELVAAITAGGNTYYADSVKGRFTISRDNAKNTVYLQMNSLKPEDTAVYYCAAVSTSLYWAGYDYWGQGTKVTVSS”: the “polyreactivity (PSR sort gate)” value is “low polyreactivity”.

Take “QVQLVESGGGLVHAGRSLRLSCAASGFIFVRNAMGWYRQAPGKERELVAAITRSGGSTSYADSVKGRFTISRDNEKNTVYLQMNSLKPEDTAVYYCAAQYGYWGQGTQVTVSS”: the “polyreactivity (PSR sort gate)” value is recorded as “high polyreactivity”.

Regarding “QVQLVESGGGLVHEGGSLRLSCAASGRLFKSYAMGWYRQAPVKERELVAAISRSGGRTYYADSVKGRFTISRDNAKNTVYLQMNSLKPEDTAVYYCAATTFVAPYWGQGTQVTVSS”, the “polyreactivity (PSR sort gate)” value is “low polyreactivity”. For the sequence “QVQLVESGGGLVKAGCSLRLSCAASGFTFGRYAMGWYRQAPGKERELVAAISRTGGRTYYADSVKGRFTISRDNAKNTVYLQMNSLKPEDTAVYYCAADKGGTYFNGDSWGQGTQVTVSS”, the “polyreactivity (PSR sort gate)” value is “high polyreactivity”.

Take “QVQLVESGGGLVKAGGILRLSCAASGSIFGRYVMGWYRPAPGKEREVVAAINRSGGRTYYADSVKGRFSISRDNAKYTVYLQMNSLKPEDTAVYYCATYTGSSASKEVPYDYWGQGTQVTVSS”: the “polyreactivity (PSR sort gate)” value is recorded as “high polyreactivity”. Take “QVQLVESGGGLVKAGGSHRLSLASYGTFRYYAMGWYRQAPGKERELDAGISRSGGSTYYEDSVKGRFTISRDNAKNTVYLQMNSQNPEDTEVYDCAAGNYYYWYKTKYYHYDYWGQGTQVTVSS”: the “polyreactivity (PSR sort gate)” value is reported as “high polyreactivity”. For the sequence “QVQLVESGGGLVKAGGSLGLSCAASGRTLRYYAMGWYRQAPRKERELVASISIGGSTYYADSVKGRFTISRDNAKNTVYLQMNSLKPEDTAVYYCATDYSNSGYGYWGQCTQVTVSS”, the “polyreactivity (PSR sort gate)” value is on record as “low polyreactivity”. In the case of “QVQLVESGGGLVKAGGSLRFSCAASVITFVWYAMGWYRQAPGKERDLVASIDSSVSTNYADSVKGRFTISRDNEKNTVYFQMNSLKPEDTAVYYCAAYFFFGQVGGMEYWGQGTQVTVSS”, the “polyreactivity (PSR sort gate)” value was “low polyreactivity”. Then “QVQLVESGGGLVKAGGSLRLICAASGFTFRAYAMGWYRQAPGTERELVAAINRRGGRTYYADSVKGRFTISRDNAKNTVYLQMNSLKPEDTAVYYCAAVKSGPSKGVGPPATAYDYWGQGTQVTVSS”, with “high polyreactivity”. Then “QVQLVESGGGLVKAGGSLRLSCAASAWYAMGWYRQAPGKEREFVAAITFSGSSTYYADSVKGRFTISRDNAKNTVYLQMNSLKPEVTAVYYCNADWWEWGQGTQVTVSS”, with “low polyreactivity”; and “QVQLVESGGGLVKAGGSLRLSCAASGFICVDYDRGGSRQAPGQERELVAAINWSGGSTDYADSVKGRFTISRDNAKNTVYLQMNSLKPEDTAVYYCGAEGQDCRFYWGLGTQVTVSS”, with “low polyreactivity”. For “QVQLVESGGGLVKAGGSLRLSCAASGFTFLNNTMGWYRQAPGKERELVAGITSSGDRTYYADSVKGRFTISRDNAKNTVYLQMNSLKPEDTAVYYCNADSSYPPGYDYWGQGTQVTVSS” the value was “low polyreactivity”; for “QVQLVESGGGLVKAGGSLRLSCAASGFTFTRYAMGWYRQAPGKDRELVAAISSGSRSYYADSVKGRFTISRDNANNTVYLQMNSLKPEDTAVYNCASPDYTYYGHYDSWGQGTQVTVSS”, “high polyreactivity”. Take “QVQLVESGGGLVKAGGSLRLSCAASGITFHDYPMGWYRQAPGKERELVAAISSGGSTNYADSVKGRFTISRDNEKNTVYLQLNSLKPEDTAVYYCAAKYTDIVARLSLYYYWGQGTQVTVSS”: the “polyreactivity (PSR sort gate)” value is reported as “low polyreactivity”. Then “QVQLVESGGGLVKAGGSLRLSCAASGLIFKLNAMGWYRQSPGKERELVAAIRASTGSTYYADSVKGRFTISRDNAKNTVYLQMNSLKPEDTAVYYCAVSLRWYFFLMDYWGQGTQVTVSS”, with “high polyreactivity”. On to “QVQLVESGGGLVKAGGSLRLSCAASGNIFTSNAMGWYRQAPGKERELVAAITSGGSTYYADSVKGRFTISRDNAKNTVYLQMNSLKPEDTAVYYCATLPRPHLRPYYYWGQGTQVTVSS”, for which the “polyreactivity (PSR sort gate)” value is “high polyreactivity”. Turning to “QVQLVESGGGLVKAGGSLRLSCAASGRIFKYNAMGWYRQAPGKERELVAVITSGGSTYYADSVKGRFTISRDNAKNTVYLQMNSLKPEDTAVYYWGQGTQVTVSS”, the “polyreactivity (PSR sort gate)” value was “low polyreactivity”.

With “QVQLVESGGGLVKAGGSLRLSCAASGRNFSQNVMGWYRQAPGKERELVADISRGGSTNYADSVKGRFTISRDNAKNSVFLQMNSLKPEDTAVYYCAARLFWYYYHPYYYWGQGTQVTVSS”, the “polyreactivity (PSR sort gate)” value is given as “high polyreactivity”. For “QVQLVESGGGLVKAGGSLRLSCAASGRTFGNYAMGWYRQAPGKERELVASMNTGGSTSYADSVKGRFTISRDNAKNTVYLQMNSLKPEDTAVYYCARSFFWYRLHDYWGQGTQVTVSS” the value was “low polyreactivity”; for “QVQLVESGGGLVKAGGSLRLSCAASGRTFLRNAMGWYRQAPGKERELVATITRGGSTYYADSVKGRFTISRDNAKYTCYLEIISLIPEDTAVYYCAKDITGGFRRPDYGYLGQGTQVTVSS”, “low polyreactivity”. Then “QVQLVESGGGLVKAGGSLRLSCAASGRTFQIYAMGWYRQAPGKESELVAAISRTGASTYYADSVKGRFTISRDKAKNTLFLQLNSLKPEDTAVYYCAANGHCRVYFGGCHWGQGTQVTVSS”, with “high polyreactivity”. For “QVQLVESGGGLVKAGGSLRLSCAASGRTFRFYAMGWYRQAPGKEREFVAAISRSVGSTYYADSVKGRFTISRDNAKNTVYLQMNSLKPEDTAVYYCNADYRSRYVEYDYWGQGTQVTVSS” the value was “high polyreactivity”.

For “QVQLVESGGGLVKAGGSLRLSCAASGRTLRSYDMGWYRQAPGKEREVVAAITRTGGDTYYADSVKGRFTISRDNAKNTVYLQMNRLKPDDTAVYYCAAQRYRGYDYWGQGTQVTVSS”, the “polyreactivity (PSR sort gate)” value is “high polyreactivity”. For “QVQLVESGGGLVKAGGSLRLSCAASGSIFYSYAMGWYRQAPGKERELVAAITDSGDSTYYADSVKGRFTISRDYAKNTVYLQMNSLKPEDTAVYYCAAGFYPYYYWGLGTQVTVSS”, the “polyreactivity (PSR sort gate)” value is listed as “low polyreactivity”. For the sequence “QVQLVESGGGLVKAGGSLRLSCAASGSTFAKYAMGWYRQAPGKERELDASIRLSGGSTYYADSVKGRFTISRDNAKNNVYLQMNSLKPEDTAVYYCNKQFATFYYGFDYYYWGQGTQVTVSS”, the “polyreactivity (PSR sort gate)” value is “low polyreactivity”. For “QVQLVESGGGLVKAGGSLRLSCAASGSTFVGYAMGWYRQAPGKERELVADITWSGTNTYYADSVKGRFTISRDNAKNTVYLQMNSLKPEDTAVYYCAADIARSVRFYYWGQGTQVTVSS” the value was “low polyreactivity”.

Source of the values: the nanobody polyreactivity screen of Harvey et al. (2022).
